From patent US20130064834A1 (published 2013)
Read-outs that look alike come from different tables or passages of the source.

How the values were obtained:
[1] = target: T1, Chimeric protein #3 (mPro-mCat-hC-term-mmh) (mouse; human); test: ELISA, mAb coated, 1.7 nM antigen
T1 chain: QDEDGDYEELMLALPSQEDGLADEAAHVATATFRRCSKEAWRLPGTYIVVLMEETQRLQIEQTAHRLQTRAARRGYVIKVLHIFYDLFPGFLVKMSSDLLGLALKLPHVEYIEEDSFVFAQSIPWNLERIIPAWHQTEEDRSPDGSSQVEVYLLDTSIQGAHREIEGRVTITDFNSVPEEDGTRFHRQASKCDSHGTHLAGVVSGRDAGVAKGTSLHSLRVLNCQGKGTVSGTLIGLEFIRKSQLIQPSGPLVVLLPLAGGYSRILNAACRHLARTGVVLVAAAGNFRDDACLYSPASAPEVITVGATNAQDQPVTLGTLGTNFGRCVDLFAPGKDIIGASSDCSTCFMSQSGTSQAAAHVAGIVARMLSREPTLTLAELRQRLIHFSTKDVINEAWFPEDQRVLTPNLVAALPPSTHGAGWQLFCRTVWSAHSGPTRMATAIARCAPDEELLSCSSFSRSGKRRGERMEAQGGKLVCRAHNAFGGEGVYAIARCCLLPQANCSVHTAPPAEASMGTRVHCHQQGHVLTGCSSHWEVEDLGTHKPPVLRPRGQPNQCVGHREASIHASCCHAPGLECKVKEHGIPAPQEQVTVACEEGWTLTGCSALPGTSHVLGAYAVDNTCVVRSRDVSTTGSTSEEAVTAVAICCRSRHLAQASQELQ

[2] = target: T2, rat (Rattus norvegicus) PCSK9, myc-myc-his tagged (rat (Rattus norvegicus), UniProt P59996 31-691); test: SPR, mAb amine-coupled, 37C, pH 7.4
T2 construct: also called rPCSK9-mmh; rPCSK9
Source text: (§1) Briefly, mAbs were immobilized onto BIACORE™ CM5 sensor chips via amine coupling.

[3] = target: T3, mouse PCSK9, myc-myc-his tagged (mouse, UniProt Q80W65 35-694); test: SPR, mAb amine-coupled, 37C, pH 7.4
T3 construct: also called mPCSK9-mmh; mPCSK9
Source text: as §1

[4] = target: T4, his-tagged Syrian golden hamster (Mesocricetus auratus) PCSK9 (Syrian golden hamster (Mesocricetus …)); test: SPR, mAb amine-coupled, 37C, pH 7.4
T4 construct: also called maPCSK9-h; maPCSK9
T4 chain: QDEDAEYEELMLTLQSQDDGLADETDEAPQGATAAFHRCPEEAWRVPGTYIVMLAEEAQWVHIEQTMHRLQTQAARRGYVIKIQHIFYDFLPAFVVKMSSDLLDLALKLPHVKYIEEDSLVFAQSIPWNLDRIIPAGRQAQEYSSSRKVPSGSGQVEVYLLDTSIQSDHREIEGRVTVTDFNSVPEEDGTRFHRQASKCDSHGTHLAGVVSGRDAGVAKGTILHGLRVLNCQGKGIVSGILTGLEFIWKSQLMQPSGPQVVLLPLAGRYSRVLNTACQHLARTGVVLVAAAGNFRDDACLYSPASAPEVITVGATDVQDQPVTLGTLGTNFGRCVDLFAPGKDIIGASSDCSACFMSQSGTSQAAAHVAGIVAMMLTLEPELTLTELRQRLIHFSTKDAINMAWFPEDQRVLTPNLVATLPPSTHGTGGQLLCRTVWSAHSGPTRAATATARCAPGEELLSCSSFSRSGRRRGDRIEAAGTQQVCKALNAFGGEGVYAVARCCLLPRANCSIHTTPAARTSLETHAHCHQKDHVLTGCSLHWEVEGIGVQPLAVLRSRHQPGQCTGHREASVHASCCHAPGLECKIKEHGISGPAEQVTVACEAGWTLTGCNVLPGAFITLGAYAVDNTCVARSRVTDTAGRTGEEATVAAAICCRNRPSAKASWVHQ
Source text: as §1

[5] = target: T2, rat (Rattus norvegicus) PCSK9, …; test: SPR, mAb captured on anti-hFc, 37C
[6] = target: T5, cynomolgus monkey (Macaca fascicularis) PCSK9, myc-myc-his tagged (cynomolgus monkey (Macaca fascicularis), UniProt A8T662 31-692 (Macaca nemestrina entry), limits assumed); test: SPR, mAb captured on anti-hFc, 37C
T5 construct: also called mfPCSK9-mmh; mfPCSK9

[7] = target: T3, mouse PCSK9, myc-myc-his tagged; test: SPR, mAb captured on anti-hFc, 37C
[8] = target: T6, tagged rhesus monkey (Macaca mulata) PCSK9 (rhesus monkey (Macaca mulata), UniProt A8T666 31-692); test: SPR, mAb captured on anti-hFc, 37C
T6 construct: also called mmPCSK9-mmh; mmPCSK9

hPCSK9(D374Y)-mmh [9] = target: T7, hPCSK9(D374Y)-mmh (human, UniProt Q8NBP7 31-692); test: SPR, mAb captured on anti-hFc, 37C
T7 construct: also called hPCSK(D374Y)-mmh

Human PCSK9-myc-myc-his [10] = target: T8, Human PCSK9-myc-myc-his (human, UniProt Q8NBP7 31-692); test: SPR, mAb captured on anti-hFc, 37C
T8 construct: also called hPCSK9-mmh; hPCSK9

[11] = target: T4, his-tagged Syrian golden hamster …; test: SPR, mAb captured on anti-hFc, 37C
[12] = target: T5, cynomolgus monkey (Macaca fascicularis) …; test: SPR, mAb captured on anti-hFc, 37C; remark: listed apart in the source
[13] = target: T6, tagged rhesus monkey (Macaca mulata) …; test: SPR, mAb captured on anti-hFc, 37C; remark: listed apart in the source
hPCSK9(D374Y)-mmh [14] = target: T7, hPCSK9(D374Y)-mmh; test: SPR, mAb captured on anti-hFc, 37C; remark: listed apart in the source
Human PCSK9-myc-myc-his [15] = target: T8, Human PCSK9-myc-myc-his; test: SPR, mAb captured on anti-hFc, 37C; remark: listed apart in the source

T6 sequence (A8T666 31-692 limits assumed): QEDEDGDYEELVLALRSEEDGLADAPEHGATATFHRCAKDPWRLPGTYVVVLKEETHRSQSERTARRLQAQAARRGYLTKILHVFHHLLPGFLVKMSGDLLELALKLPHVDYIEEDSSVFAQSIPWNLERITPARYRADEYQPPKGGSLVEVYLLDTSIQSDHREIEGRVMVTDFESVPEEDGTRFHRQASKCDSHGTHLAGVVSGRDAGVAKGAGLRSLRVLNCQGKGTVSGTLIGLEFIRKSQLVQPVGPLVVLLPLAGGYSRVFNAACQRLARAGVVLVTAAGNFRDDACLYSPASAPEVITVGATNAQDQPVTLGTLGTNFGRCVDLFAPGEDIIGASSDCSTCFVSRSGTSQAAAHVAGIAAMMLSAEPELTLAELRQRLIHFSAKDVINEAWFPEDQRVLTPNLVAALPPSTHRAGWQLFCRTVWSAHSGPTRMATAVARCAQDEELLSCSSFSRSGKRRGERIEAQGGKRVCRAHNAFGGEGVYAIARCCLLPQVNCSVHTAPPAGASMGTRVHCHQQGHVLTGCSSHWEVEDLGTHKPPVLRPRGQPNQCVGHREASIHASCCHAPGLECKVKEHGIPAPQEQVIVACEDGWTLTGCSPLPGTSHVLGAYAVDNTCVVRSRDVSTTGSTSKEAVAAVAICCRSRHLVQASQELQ
T2 sequence (P59996 31-691 limits assumed): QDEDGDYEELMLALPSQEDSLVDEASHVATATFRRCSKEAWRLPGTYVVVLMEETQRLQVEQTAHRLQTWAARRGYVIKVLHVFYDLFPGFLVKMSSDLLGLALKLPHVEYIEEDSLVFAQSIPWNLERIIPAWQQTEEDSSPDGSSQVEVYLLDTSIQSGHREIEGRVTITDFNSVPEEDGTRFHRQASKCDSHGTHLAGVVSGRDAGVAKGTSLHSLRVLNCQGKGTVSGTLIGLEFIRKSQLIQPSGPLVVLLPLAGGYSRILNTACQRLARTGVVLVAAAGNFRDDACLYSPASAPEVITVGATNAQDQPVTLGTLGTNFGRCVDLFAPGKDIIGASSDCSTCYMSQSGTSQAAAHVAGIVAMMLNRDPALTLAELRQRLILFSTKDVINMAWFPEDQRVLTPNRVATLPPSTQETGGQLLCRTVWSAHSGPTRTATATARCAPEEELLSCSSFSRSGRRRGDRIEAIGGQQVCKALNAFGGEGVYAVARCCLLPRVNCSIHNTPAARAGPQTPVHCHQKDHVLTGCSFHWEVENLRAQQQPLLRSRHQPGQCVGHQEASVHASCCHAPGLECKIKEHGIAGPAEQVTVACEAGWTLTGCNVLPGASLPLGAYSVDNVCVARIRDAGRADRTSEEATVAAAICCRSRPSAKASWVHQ
T5 sequence (A8T662 31-692 limits assumed): as the sequence (A8T666 31-692 limits assumed) above, with P607A, K639E counted along it

B1: H1H316P (antibody, V domains shown)
VH: EVQLVESGGGLVQPGGSLRLSCAASGFTFNNYAMNWVRQAPGKGLDWVSTISGSGGTTNYADSVKGRFIISRDSSKHTLYLQMNSLRAEDTAVYYCAKDSNWGNFDLWGRGTLVTVSS
VL: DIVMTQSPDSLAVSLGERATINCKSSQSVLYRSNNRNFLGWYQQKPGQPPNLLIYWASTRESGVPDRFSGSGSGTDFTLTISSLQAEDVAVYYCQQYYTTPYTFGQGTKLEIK
notes: Fully human mAb made in CHO cells; also called mAb316P
Work on B1 yielded an OD [1] of over 1.5 od, a Kd [2] of 55.1 nM and a T1/2 [2] of 2 min. It also gave a Kd [3] of 12.2 nM, a T1/2 [3] of 3 min and a Kd [4] of 21.7 nM. It also gave a T1/2 [4] of 2 min, a Kd [5] of 37.5 nM and a T1/2 [5] of 1 min. It also gave a Kd [6] of 1.8 nM, a T1/2 [6] of 11 min and a Kd [7] of 4.7 nM. The T1/2 [7] was 3 min, the Kd [8] was 1.8 nM and the T1/2 [8] was 21 min. It also gave a Kd (hPCSK9(D374Y)-mmh [9]) of 4.2 nM, a T1/2 (hPCSK9(D374Y)-mmh [9]) of 4 min and a Kd (Human PCSK9-myc-myc-his [10]) of 1.8 nM. It also gave a T1/2 (Human PCSK9-myc-myc-his [10]) of 9 min, a Kd [11] of 19 nM and a T1/2 [11] of 1 min.

B2: H1M300N (antibody, V domains shown)
VH: EMQLVESGGGLVQPGGSLRLSCAASGFTFSSHWMKWVRQAPGKGLEWVANINQDGSEKYYVDSVKGRFTISRDNAKNSLFLQMNSLRAEDTAVYYCARDIVLMVYDMDYYYYGMDVWGQGTTVTVSS
VL: not shown
notes: Fully human version made in CHO cells
For B2, the Kd [12] was 3.8 nM, the T1/2 [12] was 11 min and the Kd [13] was 1.6 nM. The T1/2 [13] was 26 min, the Kd (hPCSK9(D374Y)-mmh [14]) was 2.2 nM and the T1/2 (hPCSK9(D374Y)-mmh [14]) was 14 min. The Kd (Human PCSK9-myc-myc-his [15]) was 2.4 nM and the T1/2 (Human PCSK9-myc-myc-his [15]) was 22 min.
